Data as given in paper PMC6026317 (2018).
Like-named read-outs stand apart in the source and are kept apart here. Ends that are not written are not given here.

Columns and labels:
[1] = biological target: T1, Soluble human FGFR1c/KLB receptor complex (FGFR1c ectodomain-Fc with soluble KLB) (human, UniProt P11362 22-376; Q86Z14 1-996); experiment: AlphaScreen competition with biotinylated FGF21
[2] = biological target: T1, Soluble human FGFR1c/KLB receptor …; experiment: AlphaScreen competition with biotinylated FGF21; remark: listed apart in the source

T1 sequence (P11362 22-376, chain 1 of 2): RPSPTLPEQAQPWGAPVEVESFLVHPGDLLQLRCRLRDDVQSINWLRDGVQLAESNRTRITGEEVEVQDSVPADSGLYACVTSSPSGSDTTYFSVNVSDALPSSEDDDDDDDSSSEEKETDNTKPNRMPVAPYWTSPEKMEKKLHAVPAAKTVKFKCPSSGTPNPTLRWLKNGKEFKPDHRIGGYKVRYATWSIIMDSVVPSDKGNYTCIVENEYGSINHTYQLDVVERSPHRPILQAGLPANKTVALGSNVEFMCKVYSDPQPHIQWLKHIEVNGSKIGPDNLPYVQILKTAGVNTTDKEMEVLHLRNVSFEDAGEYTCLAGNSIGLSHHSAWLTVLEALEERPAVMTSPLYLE
T1 sequence (Q86Z14 53-996, chain 2 of 2): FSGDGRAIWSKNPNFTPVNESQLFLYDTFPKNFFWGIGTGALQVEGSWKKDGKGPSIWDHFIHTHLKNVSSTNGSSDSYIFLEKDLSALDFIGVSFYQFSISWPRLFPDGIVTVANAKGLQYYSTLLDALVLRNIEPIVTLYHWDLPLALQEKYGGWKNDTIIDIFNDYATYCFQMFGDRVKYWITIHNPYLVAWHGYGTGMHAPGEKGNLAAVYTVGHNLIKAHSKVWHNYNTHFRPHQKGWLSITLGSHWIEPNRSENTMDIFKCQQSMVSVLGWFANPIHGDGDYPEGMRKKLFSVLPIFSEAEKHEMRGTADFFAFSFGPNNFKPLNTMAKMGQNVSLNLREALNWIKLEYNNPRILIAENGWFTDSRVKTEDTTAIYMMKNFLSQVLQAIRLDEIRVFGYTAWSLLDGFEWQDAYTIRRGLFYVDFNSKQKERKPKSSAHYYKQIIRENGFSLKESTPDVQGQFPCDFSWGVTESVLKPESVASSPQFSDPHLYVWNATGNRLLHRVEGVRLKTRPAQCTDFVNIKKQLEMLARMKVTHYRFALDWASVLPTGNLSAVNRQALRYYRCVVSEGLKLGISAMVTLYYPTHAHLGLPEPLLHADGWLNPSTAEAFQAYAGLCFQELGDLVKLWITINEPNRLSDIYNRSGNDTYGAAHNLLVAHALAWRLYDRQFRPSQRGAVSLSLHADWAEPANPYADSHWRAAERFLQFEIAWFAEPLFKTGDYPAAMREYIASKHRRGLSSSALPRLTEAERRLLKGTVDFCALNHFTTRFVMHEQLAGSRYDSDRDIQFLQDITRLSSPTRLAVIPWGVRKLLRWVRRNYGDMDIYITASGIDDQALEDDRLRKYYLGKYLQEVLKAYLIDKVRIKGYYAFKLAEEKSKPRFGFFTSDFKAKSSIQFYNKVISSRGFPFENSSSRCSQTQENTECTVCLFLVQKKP

Row | Binder | IC50 [1] | IC50 [2]
1 | PPDVGSADPLSMVGPSQGRSPSYAS-NH2 [21C25 S163A] | 190 nM | 
2 | PPDVGSSDPLSMVGPSAGRSPSYAS-NH2 [21C25 Q173A] | 70 nM | 
3 | PPAVGSSDPLSMVGPSQGRSPSYAS-NH2 [21C25 D159A] | 1390 nM | 
4 | PPDVGSSDPLSMVGPSQGRSPAYAS-NH2 [21C25 S178A] | 2870 nM | 
5 | PPDVGSSDPLSMVGPSQGASPSYAS-NH2 [21C25 R175A] | 50 nM | 
6 | PPDVGSSDPLSMVGPAQGRSPSYAS-NH2 [21C25 S172A] | 120 nM | 
7 | APDVGSSDPLSMVGPSQGRSPSYAS-NH2 [21C25 P157A] | 420 nM | 
8 | PADVGSSDPLSMVGPSQGRSPSYAS-NH2 [21C25 P158A] | 890 nM | 
9 | PPDVGSSDPLSMVGASQGRSPSYAS-NH2 [21C25 P171A] | 130 nM | 
10 | PPDVGSSDPLSMVAPSQGRSPSYAS-NH2 [21C25 G170A] | 180 nM | 
11 | PPDVGASDPLSMVGPSQGRSPSYAS-NH2 [21C25 S162A] | 2130 nM | 
12 | PPDVGSSDPLSMVGPSQGRAPSYAS-NH2 [21C25 S176A] | 3140 nM | 
13 | PPDVGSSDPLSMVGPSQARSPSYAS-NH2 [21C25 G174A] | 150 nM | 
14 | PPDVGSSDPLSMVGPSQGRSPSYAS-NH2 [21C25 (C-terminal 25-residue peptide of FGF21)] |  | 150 nM
15 | PPDVASSDPLSMVGPSQGRSPSYAS-NH2 [21C25 G161A] | 160 nM | 
16 | PPDAGSSDPLSMVGPSQGRSPSYAS-NH2 [21C25 V160A] | 3980 nM | 
17 | PPDVGSSDPLSMVGPSQGRSPSYAA-NH2 [21C25 S181A] | 50 nM | 
18 | PPDVGSSDPLSMVGPSQGRSPSAAS-NH2 [21C25 Y179A] | 2580 nM | 
19 | PPDVGSSDPLAMVGPSQGRSPSYAS-NH2 [21C25 S167A] | 200 nM | 
20 | PPDVGSSDPLSMAGPSQGRSPSYAS-NH2 [21C25 V169A] | 3110 nM | 
21 | PPDVGSSDPLSMVGPSQGRSASYAS-NH2 [21C25 P177A] | 2500 nM | 
